Patent US20230340081A1 (Hoffmann-La Roche, published 2023)

T1: consensus S-HBs protein of HBV genotype I (ConsHBAg_I) (hepatitis B virus genotype I (consensus), UniProt P31873 175-400)
T1 construct: also called genotype I S-HBs
T1 chain: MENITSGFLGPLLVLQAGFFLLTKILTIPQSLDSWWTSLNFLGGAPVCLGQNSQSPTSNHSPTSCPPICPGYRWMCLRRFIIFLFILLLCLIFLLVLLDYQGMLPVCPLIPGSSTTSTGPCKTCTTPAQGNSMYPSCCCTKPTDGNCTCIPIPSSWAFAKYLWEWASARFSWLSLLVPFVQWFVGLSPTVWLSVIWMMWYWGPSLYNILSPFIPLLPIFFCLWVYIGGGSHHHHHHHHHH

T2: consensus S-HBs protein of HBV genotype E (ConsHBAg_E) (hepatitis B virus genotype E (consensus), UniProt Q69603 174-399)
T2 construct: also called genotype E S-HBs
T2 chain: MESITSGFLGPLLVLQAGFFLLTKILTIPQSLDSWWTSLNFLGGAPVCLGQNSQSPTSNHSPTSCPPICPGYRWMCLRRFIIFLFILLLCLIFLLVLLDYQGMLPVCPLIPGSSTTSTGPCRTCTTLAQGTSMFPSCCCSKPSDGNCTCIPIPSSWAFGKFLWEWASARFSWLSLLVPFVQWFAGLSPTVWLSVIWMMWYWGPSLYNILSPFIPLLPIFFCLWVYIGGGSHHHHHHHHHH


Experiments:
[1] = target: genotype D S-HBs mutant protein T126A (hepatitis B virus genotype D, UniProt P03138 164-389); assay: flow cytometry, S-HBs-transfected 293-F cells
[2] = target: T3, consensus S-HBs protein of HBV genotype D (ConsHBAg_D) (hepatitis B virus genotype D (consensus), UniProt P03138 164-389); assay: flow cytometry, S-HBs-transfected 293-F cells
T3 construct: also called genotype D S-HBs; ConsD S-HBs

[3] = target: T1, consensus S-HBs protein of HBV genotype …; assay: flow cytometry, S-HBs-transfected 293-F cells
[4] = target: T4, consensus S-HBs protein of HBV genotype C (ConsHBAg_C) (hepatitis B virus genotype C (consensus), UniProt P03140 175-400); assay: flow cytometry, S-HBs-transfected 293-F cells
T4 construct: also called genotype C S-HBs

[5] = target: T5, consensus S-HBs protein of HBV genotype B (ConsHBAg_B) (hepatitis B virus genotype B (consensus), UniProt Q9PWW3 175-400); assay: flow cytometry, S-HBs-transfected 293-F cells
T5 construct: also called genotype B S-HBs

[6] = target: T6, consensus S-HBs protein of HBV genotype H (ConsHBAg_H) (hepatitis B virus genotype H (consensus), UniProt Q8JMZ6 175-400); assay: flow cytometry, S-HBs-transfected 293-F cells
T6 construct: also called genotype H S-HBs

[7] = target: T7, consensus S-HBs protein of HBV genotype F (ConsHBAg_F) (hepatitis B virus genotype F (consensus), UniProt Q05496 175-400); assay: flow cytometry, S-HBs-transfected 293-F cells
T7 construct: also called genotype F S-HBs

[8] = target: T8, consensus S-HBs protein of HBV genotype A (ConsHBAg_A) (hepatitis B virus genotype A (consensus), UniProt P03141 175-400); assay: flow cytometry, S-HBs-transfected 293-F cells
T8 construct: also called genotype A S-HBs

[9] = target: genotype D S-HBs mutant protein N146S (hepatitis B virus genotype D, UniProt P03138 164-389); assay: flow cytometry, S-HBs-transfected 293-F cells
[10] = target: genotype D S-HBs mutant protein M133T (hepatitis B virus genotype D, UniProt P03138 164-389); assay: flow cytometry, S-HBs-transfected 293-F cells
[11] = target: T2, consensus S-HBs protein of HBV genotype …; assay: flow cytometry, S-HBs-transfected 293-F cells
[12] = target: genotype D S-HBs mutant protein Y134V (hepatitis B virus genotype D, UniProt P03138 164-389); assay: flow cytometry, S-HBs-transfected 293-F cells
[13] = target: T9, consensus S-HBs protein of HBV genotype G (ConsHBAg_G) (hepatitis B virus genotype G (consensus), UniProt Q9IBI3 174-399); assay: flow cytometry, S-HBs-transfected 293-F cells
T9 construct: also called genotype G S-HBs

[14] = target: HBV genotype D viruses (produced in HepG2.2.15 cell culture supernatant) (hepatitis B virus genotype D); assay: cell-based or functional assay
[15] = target: T10, Ayw S-HBs protein (ayw HBsAg particles, Engerix-B (Ayw)) (hepatitis B virus, ayw subtype); assay: ELISA on recombinant HBV vaccine particles
[16] = target: T11, Adw S-HBs protein (adw HBsAg particles, GenHevac (Adw)) (hepatitis B virus, adw subtype); assay: ELISA on recombinant HBV vaccine particles
T11 construct: also called GenHevac-B

[17] = target: T10, Ayw S-HBs protein (ayw HBsAg particles, …); assay: ELISA, AUC of binding curve; set-up: unit not given beside the values
[18] = target: T11, Adw S-HBs protein (adw HBsAg particles, …); assay: ELISA, AUC of binding curve; set-up: unit not given beside the values
[19] = target: genotype D S-HBs mutant protein G145R (hepatitis B virus genotype D, UniProt P03138 164-389); assay: flow cytometry, S-HBs-transfected 293-F cells

T6 sequence (Q8JMZ6 175-400, tags left off): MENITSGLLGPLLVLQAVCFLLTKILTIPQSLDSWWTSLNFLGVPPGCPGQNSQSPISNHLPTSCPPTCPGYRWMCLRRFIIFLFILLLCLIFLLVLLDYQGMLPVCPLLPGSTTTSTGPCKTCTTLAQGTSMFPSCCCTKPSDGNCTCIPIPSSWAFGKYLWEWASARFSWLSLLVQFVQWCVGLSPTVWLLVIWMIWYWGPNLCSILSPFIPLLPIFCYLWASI
T7 sequence (Q05496 175-400, tags left off): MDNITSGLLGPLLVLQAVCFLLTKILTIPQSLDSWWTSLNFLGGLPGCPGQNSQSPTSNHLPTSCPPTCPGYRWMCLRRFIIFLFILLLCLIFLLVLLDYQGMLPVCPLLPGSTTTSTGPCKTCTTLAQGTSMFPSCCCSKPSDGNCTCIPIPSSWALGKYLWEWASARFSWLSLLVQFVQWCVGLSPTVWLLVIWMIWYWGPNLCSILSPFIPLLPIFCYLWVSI

Binder	% of bound S-HBs-expressing cells [1] [%]	% of bound S-HBs-expressing cells [2] [%]	% of bound S-HBs-expressing cells [3] [%]	% of bound S-HBs-expressing cells [4] [%]	% of bound S-HBs-expressing cells [5] [%]	% of bound S-HBs-expressing cells [6] [%]	% of bound S-HBs-expressing cells [7] [%]	% of bound S-HBs-expressing cells [8] [%]	% of bound S-HBs-expressing cells [9] [%]	% of bound S-HBs-expressing cells [10] [%]	% of bound S-HBs-expressing cells [11] [%]	% of bound S-HBs-expressing cells [12] [%]	% of bound S-HBs-expressing cells [13] [%]	HBV-gD in vitro neutralization (IC50 µg/ml) [14] [µg/mL]	EC50 [15] [ng/mL]	EC50 [16] [ng/mL]	AUC (serotype binding) [17]	AUC (serotype binding) [18]	% of bound S-HBs-expressing cells [19] [%]
Bc1.229 (antibody, V domains shown) VH: QVQLVESGGGVVQPGRSLRVSCAASGFTFSNYGMHWVRQAPGKGLEWLAVIWNDGSNKYYADSVKGRFIISRDNSKNTLYLQMNSLGAEDTAMYYCAREGLTSVTMLDSWGQGALVTVSS VL: DIQMTQSPSSLSASVGDRVTITCRASQYISSFLNWYQQKPGKAPKLLIHVASSLQSGVPSRFSGSGSGTHFTLTISSLQPEDFATYYCQQSYSTPLFTFGPGTKVDIKR	70	73	64	76	68	74	68	75	56	62	71	67	79	2.53e-05	12.3	26.1	34	35	–
Bc1.187 (antibody, human IgG1, kappa, also called Bcl.187; Bc1.187_huIgG1_wt) heavy: not shown light: DIQMTQSPSSLSAYVGDRVTITCRASQRISTYLNWYHQRPGKSPSLLIYGASSLQSGVPSRFSASASGTDFTLTISSLRPEDLGTYYCQQTYTLPPNSGGGTKVEIKRTVAAPSVFIFPPSDEQLKSGTASVVCLLNNFYPREAKVQWKVDNALQSGNSQESVTEQDSKDSTYSLSSTLTLSKADYEKHKVYACEVTHQGLSSPVTKSFNRGEC	60	66	54	67	70	59	58	73	48	52	66	57	64	5e-08	3.5	4.9	35	36	17
Bv4.105 (antibody, V domains shown) VH: QVQLVESGGGLVQSGRSLRLSCSAFGFTFGDYPIMWVRLAPGKGLEWVGFIRSKAYGGTAEYAASVKGRFTTSRDDSRSTAYLQMNSLKTEDTAVYYCTREGGHSGFWSGFNKIPTFDYWGQGSLVTVSS VL: DIQMTQSPSSLSASIGDRVSITCRASETIRTYLNWYQHKPGKAPQLLIYAASSVQSGVPSRFSGSGSGTDFTLTISNLQPEDFATYYCQQSYTSPWVTFGPGTKVDIKR	–	–	–	1	–	55	46	21	–	–	–	–	–	2.95e-06	4.8	8920	33	8	–
Bc8.111 (antibody) heavy: not shown light: QSVLTQPHSVSESPGKTVTISCTRSSGSIASNYVQWYQQRPGSAPTTVIYEDNERPSGVPARFSGSIDSSSNSASLTISGLKTEDEADYYCQSYESSNWVFGGGTKLTVLGQPKAAPSVTLFPPSSEELQANKATLVCLISDFYPGAVTVAWKADSSPVKAGVETTTPSKQSNNKYAASSYLSLTPEQWKSHRSYSCQVTHEGSTVEKTVAPTECS	55	71	52	72	64	67	66	65	55	54	68	56	60	2.51e-06	9.5	8.9	36	35	0
Bc1.263 (antibody, human IgG1, kappa, V domains shown) VH: QVQLVQSGAEVKKPGSSVKVSCRASGGTFSNYGVNWVRQAPGQGLEWMGKIIPILGIVNYAQKFQGRVTITADKSTSTAYMELSSLRSEDTAVYYCARDRGGKPLYSYGYGLDYWGQGTLVTVSS VL: EIVLTQSPATLSLSPGERATLSCRASLSVSTYLAWYQKKPGQPPRLLIYDASKRATGIPARFSGSGSGTDFTLTISSLEPEDFAVYYCQQRSTTFGQGTKVEIKR	–	–	–	–	–	–	–	–	–	–	–	–	–	3.96e-06	–	–	–	–	–
Bv4.115 (antibody) heavy: not shown light: DIQMTQSPSTLSASVGDRVTITCRASQSINTWLAWYQQKPGKAPKLLISKASSLESGVPSRFSGSGSGTEFTLSISSLQPDDFATYYCQQYNTFSFGQGTKLEIKRTVAAPSVFIFPPSDEQLKSGTASVVCLLNNFYPREAKVQWKVDNALQSGNSQESVTEQDSKDSTYSLSSTLTLSKADYEKHKVYACEVTHQGLSSPVTKSFNRGEC	71	89	71	82	83	77	73	88	67	67	85	66	83	3.87e-06	5.1	27.7	37	36	60
Bc1.128 (antibody) heavy: not shown light: DIQLTQSPSSLSASVGDRVTITCRASQGIRSDLGWYQQKPGKAPKRLIYGASNLQRGVPSRFSGSGSGTEFTLTISSLQPEDFASYYCLQHNSFPWTFGQGTKVEIKRTVAAPSVFIFPPSDEQLKSGTASVVCLLNNFYPREAKVQWKVDNALQSGNSQESVTEQDSKDSTYSLSSTLTLSKADYEKHKVYACEVTHQGLSSPVTKSFNRGEC	53	64	47	67	67	59	58	64	46	48	65	47	58	0.000544	5.7	7.2	37	35	0
